Experimental data reported in PMC6745501, “Plant photoreceptors and their signaling components compete for COP1 binding via VP peptide motifs” (The EMBO Journal, 2019).
Residue numbers refer to the chain shown, from its start.

T1: COP1^349–675,Lys422Ala WD40 domain (Arabidopsis, UniProt P43254 349-675, Lys422Ala)
T1 construct: COP1, Arabidopsis, WD40 domain, residues 349-675, Lys422Ala; also called COP1^Lys422Ala; not shown: His10, N-terminal, cleaved; Twin-Strep, N-terminal, cleaved
T1 sequence (looked up): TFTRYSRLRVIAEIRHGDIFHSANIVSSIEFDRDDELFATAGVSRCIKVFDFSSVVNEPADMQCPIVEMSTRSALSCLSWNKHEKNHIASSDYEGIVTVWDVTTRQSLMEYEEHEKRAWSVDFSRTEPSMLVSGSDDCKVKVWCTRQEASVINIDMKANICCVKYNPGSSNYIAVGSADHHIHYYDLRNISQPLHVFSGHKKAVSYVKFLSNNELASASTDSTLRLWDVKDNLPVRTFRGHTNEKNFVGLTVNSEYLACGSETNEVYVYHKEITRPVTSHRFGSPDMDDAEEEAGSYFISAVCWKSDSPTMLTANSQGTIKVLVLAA

T2: COP1^Tyr441Ala WD40 domain (Arabidopsis, UniProt P43254 349-675, Tyr441Ala)
T2 construct: COP1, Arabidopsis, WD40 domain (mutant of COP1 349-675), Tyr441Ala; not shown: His10, N-terminal, cleaved; Twin-Strep, N-terminal, cleaved
T2 sequence (looked up): T1 sequence (looked up) with A74K, Y93A

T3: UVR8^ValPro/AlaAla (recombinant) (Arabidopsis, UniProt Q9FN03 1-440, ValPro/AlaAla)
T3 construct: UVR8, Arabidopsis, Val-Pro of the C-terminal VP motif mutated to Ala-Ala; compared with the wild type (full-length) protein, monomer ~50 kDa; also called the mutant photoreceptor; not shown: His10, N-terminal, cleaved; Twin-Strep, N-terminal, cleaved
T3 sequence (looked up): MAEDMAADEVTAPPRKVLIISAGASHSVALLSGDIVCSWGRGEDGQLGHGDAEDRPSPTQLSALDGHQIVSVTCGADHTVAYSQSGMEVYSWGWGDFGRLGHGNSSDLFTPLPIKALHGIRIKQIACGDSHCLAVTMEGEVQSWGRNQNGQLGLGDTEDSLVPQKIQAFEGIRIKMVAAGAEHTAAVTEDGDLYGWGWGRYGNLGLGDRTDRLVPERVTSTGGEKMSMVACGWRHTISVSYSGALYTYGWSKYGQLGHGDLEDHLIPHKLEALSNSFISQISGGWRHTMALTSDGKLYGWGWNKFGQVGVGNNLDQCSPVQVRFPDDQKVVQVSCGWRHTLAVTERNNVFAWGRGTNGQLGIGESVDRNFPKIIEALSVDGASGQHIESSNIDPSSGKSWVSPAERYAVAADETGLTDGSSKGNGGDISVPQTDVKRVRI

T4: UVR8^12–381 β‐propeller core (Arabidopsis, UniProt Q9FN03 12-381)
T4 construct: also called UVR8 β‐propeller core; UVR8 core domain; not shown: His10, N-terminal, cleaved; Twin-Strep, N-terminal, cleaved
T4 sequence (looked up): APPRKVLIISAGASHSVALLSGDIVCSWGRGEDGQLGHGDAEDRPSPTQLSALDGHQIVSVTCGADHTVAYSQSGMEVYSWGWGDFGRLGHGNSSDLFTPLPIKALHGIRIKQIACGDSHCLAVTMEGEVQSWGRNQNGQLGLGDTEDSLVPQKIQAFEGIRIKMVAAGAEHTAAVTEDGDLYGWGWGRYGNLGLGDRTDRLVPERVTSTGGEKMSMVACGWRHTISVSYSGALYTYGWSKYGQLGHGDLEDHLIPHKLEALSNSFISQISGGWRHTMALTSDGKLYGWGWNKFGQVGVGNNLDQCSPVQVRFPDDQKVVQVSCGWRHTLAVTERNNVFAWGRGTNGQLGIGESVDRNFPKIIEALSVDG

T5: full‐length UVR8 (recombinant) (Arabidopsis, UniProt Q9FN03 1-440)
T5 construct: UV … LOCUS 8 (UVR8) UV-B photoreceptor, Arabidopsis, full length; Dimer in the ground state; monomerized by 60 min UV-B on ice where the assay says so; not shown: His10, N-terminal, cleaved; Twin-Strep, N-terminal, cleaved
T5 sequence (looked up): T3 sequence (looked up) with A410V, A411P

B1: HY5^39–48 VP peptide (peptide, UniProt O24646 39-48, looked up)
peptide: EIRRVPEFGG
notes: ELONGATED HYPOCOTYL 5 (HY5) bZIP transcription factor, residues 39-48 (holds Arg41, Glu45); also called HY5 VP peptide; HY5 peptide; source: synthetic peptide (Peptide Specialty Labs GmbH)
B2: Arabidopsis COP1^349–675 WD40 domain (domain or fragment, UniProt P43254 349-675, looked up)
chain: T1 sequence (looked up) with A74K
notes: COP1 (CONSTITUTIVELY PHOTOMORPHOGENIC 1) E3 ubiquitin ligase, Arabidopsis, WD40 domain, residues 349-675; also called COP1 WD40 domain; COP1 WD40; not shown: His10, N-terminal, cleaved; Twin-Strep, N-terminal, cleaved

Experiments:
Settings in all cases: both partners purified
[1] = biological target: B2; assay: ITC; VP peptide (titrant, 500-3,000 μM) injected into COP1 WD40 in the cell at about 10-fold lower concentration; 150 mM NaCl, 20 mM HEPES 7.4, 2 mM BME; 25°C; one-site binding model
[2] = biological target: T1, COP1^349–675,Lys422Ala WD40 domain; assay: as above
[3] = biological target: T2, COP1^Tyr441Ala WD40 domain; assay: as above
[4] = biological target: T3, UVR8^ValPro/AlaAla (recombinant); assay: SEC; analytical SEC, Superdex 200 Increase 10/300 GL; ~4 μM of each protein mixed; UVR8 form pre-monomerized by UV-B; 150 mM NaCl, 20 mM HEPES 7.4, 2 mM BME; fractions on Coomassie-stained SDS-PAGE
[5] = biological target: T4, UVR8^12–381 β‐propeller core; assay: not stated; UV-B-activated UVR8 forms versus COP1 WD40 and its mutants; Appendix Figs S4B, S4C, S6A, S6B, not shown (ITC or GCI)
[6] = biological target: T5, full‐length UVR8 (recombinant); assay: not stated; non-photoactivated (ground-state) full-length UVR8 versus COP1 WD40; Appendix Fig S4A, not shown (ITC or GCI)

Binder | Kd [1] | fold stronger binding than UVR8^406–413 [1] | stoichiometry N [2] | stoichiometry N [3] | binding result [4] | Kd [5] | Kd [6]
B1 | ~20000 nM | ~8 fold | 0.83 | 0.92 |  |  | 
B2 |  |  |  |  | binds | ~500 nM | ~1000 nM
